{
  "source": "the RNAGym collection of RNA variant scans (doi:10.1021/acssynbio.7b00057)",
  "parents": {"B1": {"name": "Pistol ribozyme (parent)", "chain": "GGGUCGUUGUUCCAUAAUCGCGUGGAUAUGGCACGCAAGUUUCUACCGGGCACCGUAAAUGUCCGACUGGAGCCGUUCGGGCGGCUAUAAACAGACCUCAGGCCCGAAGCGUGGCGGCACCUGCCGCCGGUGGUAAAAAAGAUCGGAAGAGCACACGUCU"}},
  "data": [
    {"variants_of": "B1", "test": "aptazyme ON/OFF ratio, guanine; higher = stronger switching; co-transcriptional cleavage with and without guanine", "values": [
      {"variant": "U8C G9C U10C U11A", "aptazyme ON/OFF ratio": 1.02},
      {"variant": "U8C G9C U10G U11A C12U C13U", "aptazyme ON/OFF ratio": 1.04},
      {"variant": "U8C G9C U10G U11A C12U C13A", "aptazyme ON/OFF ratio": 1.06},
      {"variant": "U8C G9C U10G U11A C12U C13G", "aptazyme ON/OFF ratio": 1.08},
      {"variant": "U8C G9U U10A U11A C12G C13U", "aptazyme ON/OFF ratio": 1.21},
      {"variant": "U8C G9U U10A U11A C12G C13A", "aptazyme ON/OFF ratio": 1.2},
      {"variant": "U8C G9U U10A U11A C12G C13G", "aptazyme ON/OFF ratio": 1.16},
      {"variant": "U8C G9C U10A", "aptazyme ON/OFF ratio": 1.51},
      {"variant": "U8C G9C U10G", "aptazyme ON/OFF ratio": 1.43},
      {"variant": "U8C G9C U10C", "aptazyme ON/OFF ratio": 1.97},
      {"variant": "U8C G9C U10G U11C C13G", "aptazyme ON/OFF ratio": 1.22},
      {"variant": "U8C G9C U10G U11C C13A", "aptazyme ON/OFF ratio": 1.3},
      {"variant": "U8C G9C U10G U11C C13U", "aptazyme ON/OFF ratio": 1.2},
      {"variant": "U8C G9C U11G C12U", "aptazyme ON/OFF ratio": 1.12},
      {"variant": "U8C G9C U11G C12G", "aptazyme ON/OFF ratio": 1.19},
      {"variant": "U8C G9C U11G C12A", "aptazyme ON/OFF ratio": 1.13},
      {"variant": "U8C G9C U11G C12U C13A", "aptazyme ON/OFF ratio": 1.09},
      {"variant": "U8C G9C U11G C12U C13U", "aptazyme ON/OFF ratio": 1.1},
      {"variant": "U8C G9C U11G C12U C13G", "aptazyme ON/OFF ratio": 1.11},
      {"variant": "U8C G9C U10G U11C C12A C13A", "aptazyme ON/OFF ratio": 1.19},
      {"variant": "U8C G9C U10G U11C C12A C13U", "aptazyme ON/OFF ratio": 1.13},
      {"variant": "U8C G9C U10G U11C C12A C13G", "aptazyme ON/OFF ratio": 1.14},
      {"variant": "U8C G9C U10C U11G C12G", "aptazyme ON/OFF ratio": 1.11},
      {"variant": "U8C G9C U10C U11G C12A", "aptazyme ON/OFF ratio": 1.1},
      {"variant": "U8C G9C U10C U11G C12U", "aptazyme ON/OFF ratio": 1.07},
      {"variant": "U8C G9C U10A U11G C12A C13G", "aptazyme ON/OFF ratio": 1.09},
      {"variant": "U8C G9C U10A U11G C12A C13U", "aptazyme ON/OFF ratio": 1.07},
      {"variant": "U8C G9C U10A U11G C12A C13A", "aptazyme ON/OFF ratio": 1.16},
      {"variant": "U8C G9C U10A U11G C12U", "aptazyme ON/OFF ratio": 1.22},
      {"variant": "U8C G9C U10A U11G C12A", "aptazyme ON/OFF ratio": 1.07},
      {"variant": "U8C G9C U10A U11G C12G", "aptazyme ON/OFF ratio": 1.32},
      {"variant": "U8C G9C C13A", "aptazyme ON/OFF ratio": 1.05},
      {"variant": "U8C G9C C13G", "aptazyme ON/OFF ratio": 1.06},
      {"variant": "U8C G9C C13U", "aptazyme ON/OFF ratio": 1.08},
      {"variant": "U8C G9U C12A", "aptazyme ON/OFF ratio": 1.37},
      {"variant": "U8C G9U C12G", "aptazyme ON/OFF ratio": 1.42},
      {"variant": "U8C G9U C12U", "aptazyme ON/OFF ratio": 1.42},
      {"variant": "U8C G9U U10A C12A C13U", "aptazyme ON/OFF ratio": 1.13},
      {"variant": "U8C G9U U10A C12A C13A", "aptazyme ON/OFF ratio": 1.17},
      {"variant": "U8C G9U U10A C12A C13G", "aptazyme ON/OFF ratio": 1.19},
      {"variant": "U8C G9U U10A U11G C12G C13G", "aptazyme ON/OFF ratio": 1.12},
      {"variant": "U8C G9U U10A U11G C12G C13U", "aptazyme ON/OFF ratio": 1.14},
      {"variant": "U8C G9U U10A U11G C12G C13A", "aptazyme ON/OFF ratio": 1.13},
      {"variant": "U8C G9C U10G C13A", "aptazyme ON/OFF ratio": 1.1},
      {"variant": "U8C G9C U10G C13U", "aptazyme ON/OFF ratio": 1.11},
      {"variant": "U8C G9C U10G C13G", "aptazyme ON/OFF ratio": 1.19},
      {"variant": "U8C G9C U10C U11G C12G C13U", "aptazyme ON/OFF ratio": 1.08},
      {"variant": "U8C G9C U10C U11G C12G C13G", "aptazyme ON/OFF ratio": 1.09},
      {"variant": "U8C G9C U10C U11G C12G C13A", "aptazyme ON/OFF ratio": 1.13},
      {"variant": "U8C G9C U10G C12U C13G", "aptazyme ON/OFF ratio": 1.06},
      {"variant": "U8C G9C U10G C12U C13A", "aptazyme ON/OFF ratio": 1.12},
      {"variant": "U8C G9C U10G C12U C13U", "aptazyme ON/OFF ratio": 1.28},
      {"variant": "U8C G9U U10A", "aptazyme ON/OFF ratio": 1.42},
      {"variant": "U8C G9U U10C", "aptazyme ON/OFF ratio": 1.87},
      {"variant": "U8C G9C U10G U11C C12A", "aptazyme ON/OFF ratio": 1.22},
      {"variant": "U8C G9C U10G U11C C12G", "aptazyme ON/OFF ratio": 1.21},
      {"variant": "U8C G9C U10G U11C C12U", "aptazyme ON/OFF ratio": 1.05},
      {"variant": "U8C G9C U11C", "aptazyme ON/OFF ratio": 1.06},
      {"variant": "U8C G9C U11A", "aptazyme ON/OFF ratio": 1.18},
      {"variant": "U8C G9C U11G", "aptazyme ON/OFF ratio": 1.03},
      {"variant": "U8C G9C U10C U11G C12A C13U", "aptazyme ON/OFF ratio": 1.15},
      {"variant": "U8C G9C U10C U11G C12A C13G", "aptazyme ON/OFF ratio": 1.16},
      {"variant": "U8C G9C U10C U11G C12A C13A", "aptazyme ON/OFF ratio": 1.2},
      {"variant": "U8C G9U C12G C13G", "aptazyme ON/OFF ratio": 1.17},
      {"variant": "U8C G9U C12G C13U", "aptazyme ON/OFF ratio": 1.25},
      {"variant": "U8C G9U C12G C13A", "aptazyme ON/OFF ratio": 1.21},
      {"variant": "U8C G9C U10G C12G C13G", "aptazyme ON/OFF ratio": 1.09},
      {"variant": "U8C G9C U10G C12G C13U", "aptazyme ON/OFF ratio": 1.09},
      {"variant": "U8C G9C U10G C12G C13A", "aptazyme ON/OFF ratio": 1.08},
      {"variant": "U8C G9U U10A C12G C13A", "aptazyme ON/OFF ratio": 1.27},
      {"variant": "U8C G9U U10A C12G C13G", "aptazyme ON/OFF ratio": 1.13},
      {"variant": "U8C G9U U10A C12G C13U", "aptazyme ON/OFF ratio": 1.17},
      {"variant": "U8C G9C U11A C12U C13A", "aptazyme ON/OFF ratio": 1.12},
      {"variant": "U8C G9C U11A C12U C13U", "aptazyme ON/OFF ratio": 1.07},
      {"variant": "U8C G9C U11A C12U C13G", "aptazyme ON/OFF ratio": 1.12},
      {"variant": "U8C G9U U10A U11G C12A", "aptazyme ON/OFF ratio": 1.07},
      {"variant": "U8C G9U U10A U11G C12U", "aptazyme ON/OFF ratio": 1.43},
      {"variant": "U8C G9U U10A U11G C12G", "aptazyme ON/OFF ratio": 1.23},
      {"variant": "U8C G9C U10A U11A C12U", "aptazyme ON/OFF ratio": 1.05},
      {"variant": "U8C G9C U10A U11A C12A", "aptazyme ON/OFF ratio": 1.12},
      {"variant": "U8C G9C U10A U11A C12G", "aptazyme ON/OFF ratio": 1.25},
      {"variant": "U8C G9C U11A C13G", "aptazyme ON/OFF ratio": 1.12},
      {"variant": "U8C G9C U11A C13A", "aptazyme ON/OFF ratio": 1.04},
      {"variant": "U8C G9C U11A C13U", "aptazyme ON/OFF ratio": 1.07}
    ]}
  ]
}
